The test system of the test is CS3D. Put plainly: BLI koff of purified Fabs from CS3D biopanning. The class given is binding. The procedure: First, standard biopanning (FIG. 1) was performed with Ag immobilized magnetic beads. A total of six rounds were performed with increasing stringency of washes and decreasing amounts of Ag per round. Assuming strong enrichment occurred continuously throughout the campaign, 95 colonies were randomly picked each round 4-6 (285 clones total) for candidate hit screening.
In efforts to identify improved binders, BIAS was performed with identical clones picked previously that were randomly sequenced. […] Therefore, we hypothesized that strong growth/display propensity biases were a dominant factor during the campaign, leading primarily to the identification of low-affinity binders.
Fluorescent activated sorting was applied to round 4 as both the population percentage and the normalized MFI of the shoulder population are the highest (FIG. 7). The shoulder population (top ~4%) was sorted along with the majority population (bottom ~96%) and both populations were used to infect TG1 (E. coli) cells. […] BIAS hits of the top ~4% sorted population were sequenced, and a new candidate binder, SP1-B3, was identified, along with identical clones of previously identified low-affinity binders.
All buffers were filter sterilized with […] filters prior to preparing samples. Black 384 well microplates were used to set up BLI plates and streptavidin tips were purchased by Sartorius. Kinetic constants of Fabs were determined by Octet RED384 system with continuous shaking at 1000 rpm in RT. Prior to the experiment, biological tips (model name) were presoaked in buffer to allow for equilibration for 1 hour. Data were analyzed using 1:1 interaction model on the ForteBio data analysis software 12.0.
Freshly transformed BL21 (DE3) E. coli single colony clones were picked and inoculated into 50 ml of 2×YT media containing 2% glucose and […] Ampicillin. Starter cultures were grown overnight at 37 °C with 200 rpm shaking. […]

For orientation: koff means the first-order rate constant of dissociation. Low values mean a long-lived complex, high ones a short-lived complex.

Some results are limits rather than exact numbers.

B1: SP1-B3: anti-CS3D Fab from RAPID sorting of round 4; VH SEQ ID NO: 3, VL SEQ ID NO: 4 (antibody, V domains shown)
VH: QVTLQQSGPGLVKPSQTLSLTCAISGDSVSSNSAAWNWIRQSPSRGLEWLGRTYYRSKWFTYYAASVKGRISINRDTSKNQFSLQLNSVTPDDTAVYFCARGSGGYIDHWGQGTLVTVSS
VL: QAVLTQPSSLSASPGASASLTCTLRSGINVDSYRIYWYQQKPGSPPQYLLRYKSDSDKQQGSGVPSRFSGSKDASANAGILLISGLQSEDEADYYCMIWHSSAVVFGGGTKLTVL
On to B1, for which the “koff fold lower than the Fab with the highest koff” value was over 20 fold and the “koff fold lower than the previously identified Fab with the lowest koff” value was ~ 3 fold. The koff (measured at 2 μM Fab) is 0.0211 s⁻¹.

The values are drawn from patent US20260234290A1, “Antibodies to Stat3 Decoy Oligonucleotide” (The Regents of the University of California, priority 2023, published 2026).
